According to publication PMC11784390, “Conformational changes in and translocation of small proteins: insights into the ejection mechanism of podophages” (Journal of Virology, 2024):

B1: small protein gp6.7 (natural protein, bacteriophage T7, UniProt P03801 1-88, looked up)
chain: MCFSPKIKTPKMDTNQIRAVEPAPLTQEVSSVEFGGSSDETDTEGTEVSGRKGLKVERDDSVAKSKASGNGSARMKSSIRKSAFGGKK
notes: gp6.7 of bacteriophage T7, 88 residues as printed; modelled loop I (2-15) and loop II (34-50) in mature T7, conformer A 11-41 and conformer B 11-59 in DNA-ejected T7; Twelve copies in the mature virion and in the extended channel of DNA-ejected T7; also called core protein gp6.7; source: T7 virions propagated in E. coli, purified (PEG precipitation, CsCl ultracentrifugation)
B2: core protein gp16, P03726 1-1318 (natural protein)
chain: MDKYDKNVPSDYDGLFQKAADANGVSYDLLRKVAWTESRFVPTAKSKTGPLGMMQFTKATAKALGLRVTDGPDDDRLNPELAINAAAKQLAGLVGKFDGDELKAALAYNQGEGRLGNPQLEAYSKGDFASISEEGRNYMRNLLDVAKSPMAGQLETFGGITPKGKGIPAEVGLAGIGHKQKVTQELPESTSFDVKGIEQEATAKPFAKDFWETHGETLDEYNSRSTFFGFKNAAEAELSNSVAGMAFRAGRLDNGFDVFKDTITPTRWNSHIWTPEELEKIRTEVKNPAYINVVTGGSPENLDDLIKLANENFENDSRAAEAGLGAKLSAGIIGAGVDPLSYVPMVGVTGKGFKLINKALVVGAESAALNVASEGLRTSVAGGDADYAGAALGGFVFGAGMSAISDAVAAGLKRSKPEAEFDNEFIGPMMRLEARETARNANSADLSRMNTENMKFEGEHNGVPYEDLPTERGAVVLHDGSVLSASNPINPKTLKEFSEVDPEKAARGIKLAGFTEIGLKTLGSDDADIRRVAIDLVRSPTGMQSGASGKFGATASDIHERLHGTDQRTYNDLYKAMSDAMKDPEFSTGGAKMSREETRYTIYRRAALAIERPELQKALTPSERIVMDIIKRHFDTKRELMENPAIFGNTKAVSIFPESRHKGTYVPHVYDRHAKALMIQRYGAEGLQEGIARSWMNSYVSRPEVKARVDEMLKELHGVKEVTPEMVEKYAMDKAYGISHSDQFTNSSIIEENIEGLVGIENNSFLEARNLFDSDLSITMPDGQQFSVNDLRDFDMFRIMPAYDRRVNGDIAIMGSTGKTTKELKDEILALKAKAEGDGKKTGEVHALMDTVKILTGRARRNQDTVWETSLRAINDLGFFAKNAYMGAQNITEIAGMIVTGNVRALGHGIPILRDTLYKSKPVSAKELKELHASLFGKEVDQLIRPKRADIVQRLREATDTGPAVANIVGTLKYSTQELAARSPWTKLLNGTTNYLLDAARQGMLGDVISATLTGKTTRWEKEGFLRGASVTPEQMAGIKSLIKEHMVRGEDGKFTVKDKQAFSMDPRAMDLWRLADKVADEAMLRPHKVSLQDSHAFGALGKMVMQFKSFTIKSLNSKFLRTFYDGYKNNRAIDAALSIITSMGLAGGFYAMAAHVKAYALPKEKRKEYLERALDPTMIAHAALSRSSQLGAPLAMVDLVGGVLGFESSKMARSTILPKDTVKERDPNKPYTSREVMGAMGSNLLEQMPSAGFVANVGATLMNAAGVVNSPNKATEQDFMTGLMNSTKELVPNDPLTQQLVLKIYEANGVNLRERRK

Assays:
core protein gp14 = target: T1, core protein gp14 (bacteriophage T7, UniProt P03724 1-196); assay: cryo-EM structure; mature T7 virions, in situ; entire particle asymmetric 6.1 Å; local reconstructions of core complex 3 Å (four-fold), portal 2.5 Å (twelve-fold), portal–tail complex 2.7 Å (six-fold); conditions: both partners purified
T1 construct: core protein gp14 of bacteriophage T7, 196 residues as printed; modelled residues 4-86 and 101-129 in mature T7, 25-143 in DNA-ejected T7; Eight copies resolved in the mature virion, six copies in the extended channel of DNA-ejected T7; source: T7 virions propagated in E. coli, purified (PEG precipitation, CsCl ultracentrifugation)
T1 sequence (looked up): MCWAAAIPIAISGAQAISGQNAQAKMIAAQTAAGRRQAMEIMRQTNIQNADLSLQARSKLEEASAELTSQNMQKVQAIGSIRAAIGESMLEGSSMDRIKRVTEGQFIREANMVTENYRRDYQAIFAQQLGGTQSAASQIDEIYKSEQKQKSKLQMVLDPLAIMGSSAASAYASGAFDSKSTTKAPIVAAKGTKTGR

core protein gp15 = target: T2, core protein gp15 (bacteriophage T7, UniProt P03725 1-747); assay: as above; conditions: both partners purified
T2 construct: core protein gp15 of bacteriophage T7, as it stands in the mature virion; Eight-fold ring in the core of mature T7; source: T7 virions propagated in E. coli, purified (PEG precipitation, CsCl ultracentrifugation)
T2 sequence (looked up): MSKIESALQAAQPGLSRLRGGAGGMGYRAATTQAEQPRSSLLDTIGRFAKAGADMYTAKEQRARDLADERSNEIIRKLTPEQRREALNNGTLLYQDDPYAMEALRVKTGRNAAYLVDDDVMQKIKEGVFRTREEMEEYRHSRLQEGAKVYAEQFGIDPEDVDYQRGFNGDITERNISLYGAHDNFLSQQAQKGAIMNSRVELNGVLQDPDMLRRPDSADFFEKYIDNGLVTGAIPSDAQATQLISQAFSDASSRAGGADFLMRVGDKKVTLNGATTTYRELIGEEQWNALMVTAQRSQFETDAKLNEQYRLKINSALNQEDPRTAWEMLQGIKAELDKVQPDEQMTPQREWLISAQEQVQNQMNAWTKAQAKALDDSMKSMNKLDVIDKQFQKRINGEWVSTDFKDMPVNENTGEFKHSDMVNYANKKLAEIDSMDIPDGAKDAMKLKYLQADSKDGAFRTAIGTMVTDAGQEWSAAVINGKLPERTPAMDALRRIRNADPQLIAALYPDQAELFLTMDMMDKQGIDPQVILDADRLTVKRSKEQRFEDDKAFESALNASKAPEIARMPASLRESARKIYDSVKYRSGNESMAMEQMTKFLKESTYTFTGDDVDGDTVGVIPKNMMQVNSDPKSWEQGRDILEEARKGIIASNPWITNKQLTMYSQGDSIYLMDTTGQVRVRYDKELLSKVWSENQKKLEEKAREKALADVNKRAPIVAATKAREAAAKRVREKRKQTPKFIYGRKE

portal protein gp8 = target: T3, portal protein gp8 (bacteriophage T7, UniProt P03728 1-536); assay: as above; conditions: both partners purified
T3 construct: portal protein gp8 of bacteriophage T7, as it stands in the virion; Native virion protein; also called dodecameric portal; source: T7 virions propagated in E. coli, purified (PEG precipitation, CsCl ultracentrifugation); copies: 12
T3 sequence (looked up): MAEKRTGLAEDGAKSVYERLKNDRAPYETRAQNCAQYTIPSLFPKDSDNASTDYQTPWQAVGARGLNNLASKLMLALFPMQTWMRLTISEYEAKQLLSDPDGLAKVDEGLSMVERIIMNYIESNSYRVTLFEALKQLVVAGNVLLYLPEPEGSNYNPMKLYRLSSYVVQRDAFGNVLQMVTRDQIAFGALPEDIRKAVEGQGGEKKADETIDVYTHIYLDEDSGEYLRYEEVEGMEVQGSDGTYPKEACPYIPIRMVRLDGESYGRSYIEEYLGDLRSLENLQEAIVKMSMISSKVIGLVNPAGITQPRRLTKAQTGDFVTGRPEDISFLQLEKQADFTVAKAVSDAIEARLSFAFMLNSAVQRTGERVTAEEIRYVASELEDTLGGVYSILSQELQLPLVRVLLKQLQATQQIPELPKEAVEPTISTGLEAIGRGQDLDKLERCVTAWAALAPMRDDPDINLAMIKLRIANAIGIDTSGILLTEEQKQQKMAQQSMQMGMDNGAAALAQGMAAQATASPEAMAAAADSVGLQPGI

nozzle protein gp12 = target: T4, nozzle protein gp12 (bacteriophage T7, UniProt P03747 1-794); assay: cryo-EM structure; DNA-ejected T7: purified mature T7 incubated with rough LPS (250 µg/mL) at 37°C for 3 h; entire particle asymmetric 8.2 Å; portal–tail complex 3.5 Å (six-fold); conditions: both partners purified
T4 construct: nozzle protein gp12 of bacteriophage T7, as it stands in the virion; Native virion protein; also called tail nozzle; source: T7 virions propagated in E. coli, purified (PEG precipitation, CsCl ultracentrifugation)
T4 sequence (looked up): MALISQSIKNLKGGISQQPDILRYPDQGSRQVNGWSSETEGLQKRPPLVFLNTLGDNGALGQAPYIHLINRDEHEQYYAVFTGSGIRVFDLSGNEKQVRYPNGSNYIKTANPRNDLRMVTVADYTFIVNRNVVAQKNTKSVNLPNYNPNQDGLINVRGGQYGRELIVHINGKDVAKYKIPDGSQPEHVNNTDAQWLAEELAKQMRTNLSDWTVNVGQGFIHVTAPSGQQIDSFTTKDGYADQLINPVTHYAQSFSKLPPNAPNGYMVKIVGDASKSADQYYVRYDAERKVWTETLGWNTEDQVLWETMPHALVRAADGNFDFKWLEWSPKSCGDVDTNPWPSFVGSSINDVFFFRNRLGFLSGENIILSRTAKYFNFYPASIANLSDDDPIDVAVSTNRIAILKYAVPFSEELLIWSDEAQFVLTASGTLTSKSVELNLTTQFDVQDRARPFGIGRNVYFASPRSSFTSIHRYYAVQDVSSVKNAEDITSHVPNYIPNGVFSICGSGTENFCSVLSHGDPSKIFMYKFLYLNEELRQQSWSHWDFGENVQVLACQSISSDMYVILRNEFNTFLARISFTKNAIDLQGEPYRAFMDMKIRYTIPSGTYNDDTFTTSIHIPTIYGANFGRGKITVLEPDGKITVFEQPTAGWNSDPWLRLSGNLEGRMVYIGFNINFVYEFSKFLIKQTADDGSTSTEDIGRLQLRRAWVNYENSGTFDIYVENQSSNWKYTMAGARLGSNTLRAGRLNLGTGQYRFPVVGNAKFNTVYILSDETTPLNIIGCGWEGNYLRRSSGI

[1] = target: T5, core protein gp16 (bacteriophage T7), P03726; assay: cryo-EM structure; mature T7 virions, in situ; entire particle asymmetric 6.1 Å; local reconstructions of core complex 3 Å (four-fold), portal 2.5 Å (twelve-fold), portal–tail complex 2.7 Å (six-fold); conditions: remark: other sources report otherwise
T5 chain: B2 chain

Binder | binding result (core protein gp14) | binding result (core protein gp15) | binding result (portal protein gp8) | binding result (nozzle protein gp12) | stoichiometry N [1]
B1 | binds | binds | binds | binds | –
B2 | – | – | – | – | 4
